For one experiment, the target named is T1, DPP3 (Homo sapiens, UniProt Q9NY33).
T1 sequence (Q9NY33 1-737): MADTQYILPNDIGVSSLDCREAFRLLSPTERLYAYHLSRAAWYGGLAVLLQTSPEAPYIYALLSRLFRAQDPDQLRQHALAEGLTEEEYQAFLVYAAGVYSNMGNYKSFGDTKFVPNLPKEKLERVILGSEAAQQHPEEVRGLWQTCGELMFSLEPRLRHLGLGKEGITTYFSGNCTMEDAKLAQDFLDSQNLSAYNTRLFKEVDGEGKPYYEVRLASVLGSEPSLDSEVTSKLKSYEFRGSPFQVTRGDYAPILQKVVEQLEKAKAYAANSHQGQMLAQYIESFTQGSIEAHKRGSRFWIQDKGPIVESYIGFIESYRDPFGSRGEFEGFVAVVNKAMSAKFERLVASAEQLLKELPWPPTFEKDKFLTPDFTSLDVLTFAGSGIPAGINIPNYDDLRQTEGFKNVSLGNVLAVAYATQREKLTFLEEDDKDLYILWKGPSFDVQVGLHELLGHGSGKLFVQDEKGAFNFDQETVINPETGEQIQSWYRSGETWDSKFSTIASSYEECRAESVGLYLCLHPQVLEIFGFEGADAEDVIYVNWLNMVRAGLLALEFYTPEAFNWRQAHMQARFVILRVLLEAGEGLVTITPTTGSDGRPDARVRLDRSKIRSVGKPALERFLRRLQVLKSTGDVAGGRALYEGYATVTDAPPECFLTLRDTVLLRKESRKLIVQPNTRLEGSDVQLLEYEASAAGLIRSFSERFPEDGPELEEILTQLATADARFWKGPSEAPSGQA
To be noted: literature; cited from earlier work.

Experiment [1] deals with healthy mice injected with DPP3. The experiment in a line: Effect of Valsartan in healthy mice injected with DPP3. It is filed as in vivo, Black 6 mice. As for the experimental part:
In this experiment, healthy Black 6 mice (8-12 weeks, group size refer to table 8) consumed water with 50 mg/kg Valsartan per day or just water (Table 8) for a period of two weeks. Subsequently, both groups received an intravenous injection of native DPP3 (600 μg/kg) and the shortening fraction was assessed according to Gao et al., 2011 at 15, 60 and 120 minutes (FIG. 12).

Experiment [2] addresses T2, native human DPP3 from blood cells (human, UniProt Q9NY33 2-737).
T2 sequence: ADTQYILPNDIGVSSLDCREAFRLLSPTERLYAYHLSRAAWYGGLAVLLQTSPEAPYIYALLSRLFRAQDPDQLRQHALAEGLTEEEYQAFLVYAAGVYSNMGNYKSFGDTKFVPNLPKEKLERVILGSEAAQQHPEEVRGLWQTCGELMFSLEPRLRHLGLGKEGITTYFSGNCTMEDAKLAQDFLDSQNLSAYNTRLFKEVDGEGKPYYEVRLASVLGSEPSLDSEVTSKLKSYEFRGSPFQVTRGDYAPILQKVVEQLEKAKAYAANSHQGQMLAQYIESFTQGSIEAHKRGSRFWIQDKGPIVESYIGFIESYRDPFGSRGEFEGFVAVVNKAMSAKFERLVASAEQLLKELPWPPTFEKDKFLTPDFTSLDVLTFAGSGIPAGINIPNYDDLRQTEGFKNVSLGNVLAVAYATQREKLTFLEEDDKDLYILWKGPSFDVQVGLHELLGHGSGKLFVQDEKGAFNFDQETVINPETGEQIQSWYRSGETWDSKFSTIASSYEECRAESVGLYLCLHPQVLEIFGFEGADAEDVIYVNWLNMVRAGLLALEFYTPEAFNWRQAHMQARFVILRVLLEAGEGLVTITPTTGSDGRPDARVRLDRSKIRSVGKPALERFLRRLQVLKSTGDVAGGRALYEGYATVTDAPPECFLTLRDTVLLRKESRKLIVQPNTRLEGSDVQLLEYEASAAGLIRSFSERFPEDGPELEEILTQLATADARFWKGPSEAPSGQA
The experiment in a line: cell-based or functional assay.

The test system of a further experiment is healthy mice. The experiment in a line: Effect of native DPP3 injection in healthy mice. It is filed as in vivo, Black 6 mice. Particulars: 600 μg/kg i.v., versus PBS. The protocol:
Wild type Black 6 mice (8-12 weeks, group size refer to table 3) were acclimated during 2 weeks and a baseline echocardiography was done. The mice were randomly allocated to one of the two groups and, subsequently, native DPP3 protein or PBS were injected intravenously via a retro-orbital injection with a dose of 600 μg/kg for DPP3 protein.
After DPP3 or PBS injection, cardiac function was assessed by echocardiography (Gao et al. 2011) and renal function assessed by renal resistive index (Lubas et al., 2014, Dewitte et al, 2012) at 15, 60 and 120 minutes (FIG. 3).

Entries after “also recorded” stand apart in the source; their conditions may differ.

In the case of `Cc1cc(=O)c2c(cc(O)c3c4c(O)cccc4c(=O)c32)c1=O` [Fluostatin A], the “inhibition of DPP3 activity” value on DPP3 was “strongly inhibit DPP3 activity”.

As for `CC1C(=O)c2cc(O)c3c(c2C(O)C1O)C(=O)c1cccc(O)c1-3` (stereo not drawn) [Fluostatin B], the “inhibition of DPP3 activity” value on DPP3 is “strongly inhibit DPP3 activity”.

With `CCCCC(=O)N(Cc1ccc(-c2ccccc2-c2nnn[nH]2)cc1)[C@H](C(=O)O)C(C)C` [Valsartan], the “shortening fraction after DPP3 injection” value in experiment [1] (50 mg/kg Valsartan per day in water for two weeks, then native DPP3 600 μg/kg i.v.) is on record as “rescued; also recorded: no signs of heart dysfunction”.

B1: murine monoclonal anti-DPP3 antibody AK1967 (antibody, V domains shown)
VH: QVTLKESGPGILQPSQTLSLTCSFSGFSLSTSGMSVGWIRQPSGKGLEWLAHIWWNDNKSYNPALKSRLTISRDTSNNQVFLKIASVVTADTGTYFCARNYSYDYWGQGTTLTVSS
VL: DVVVTQTPLSLSVSLGDPASISCRSSRSLVHSIGSTYLHWYLQKPGQSPKLLIYKVSNRFSGVPDRFSGSGSGTDFTLKISRVEAEDLGVYFCSQSTHVPWTFGGGTKLEIK
As to B1, in experiment [2], the “IC50 (read off the curve)” value is roughly 10 ng/mL.

B2: native DPP3: native human DPP3 purified from human erythrocyte lysate (protein)
chain: T2 sequence
Take B2: the “shortening fraction after DPP3 injection” value in experiment [1] (native DPP3 600 μg/kg i.v., no Valsartan) is on record as “significant decrease in the shortening fraction”. In the experiment on healthy mice, the renal resistive index result was “renal resistive index increase” and the shortening fraction entry is recorded as “significantly reduced shortening fraction”. Besides, in the experiment on healthy mice (listed as DPP3), the renal resistive index result is recorded as “increased renal resistive index” and the shortening fraction entry is “shortening fraction reduction”.

(Values after US20260201067A1, “DPP3 INHIBITOR FOR IMPROVEMENT OF PULMONARY FUNCTION IN CRITICALLY ILL PATIENTS” (4TEEN4 Pharmaceuticals GmbH, priority 2022, published 2026).)
